For three substances, Kd, EC50 and fold decrease in STAT5 phosphorylation in NK cells and CD8+ T cells (FACS); potency relative to Proleukin results are on record in patent US20170088631A1.

Usually EC50 stands for the concentration giving half of the maximal effect. High values mean weaker potency, low ones greater potency.

The target of experiment [1] is Carcinoembryonic Antigen (CEA) (human) (UniProt P06731). The experiment in a line: SPR at 25 C; IL-2 qm.
Experiment [2] has the same target. Put plainly: SPR at 25 C; IL-2 wt.
The target of experiment [3] is human FAP expressed on stably transfected HEK 293 cells (human) (UniProt Q12884). Put plainly: flow cytometry on HEK293 cells stably transfected with human FAP, 4 C, FITC anti-human F(ab')2 detection. A general note: In flow cytometry, cells or beads pass a laser one at a time.
Experiment [4] deals with human Fibroblast Activation Protein (FAP), recombinant (human) (UniProt Q12884). Put plainly: SPR (Biacore), His-tagged human FAP captured by anti-His antibody, construct as analyte, 25 C; apparent bivalent affinity (avidity), 1:1 fit. In general terms: SPR reads the build-up and loss of mass on a sensor chip optically.
Experiment [5] addresses human IL-2R βγ heterodimer (IL-2R β subunit-Fc(hole) / IL-2R γ subunit-Fc(knob) fusion) (human). The experiment in a line: SPR, human IL-2R βγ heterodimer immobilized on the chip, construct as analyte, 25 C; apparent KD, 1:1 fit.
For experiment [6], the target named is IL-2R βγ heterodimer on cells (NK92 cells; human NK cells and CD8+ T cells) (human) (UniProt P14784). Put plainly: cell-based or functional assay.
Chain of IL-2R βγ heterodimer on cells (NK92 cells; human NK cells and CD8+ T cells) (human) (P14784 27-551, chain 1 of 2): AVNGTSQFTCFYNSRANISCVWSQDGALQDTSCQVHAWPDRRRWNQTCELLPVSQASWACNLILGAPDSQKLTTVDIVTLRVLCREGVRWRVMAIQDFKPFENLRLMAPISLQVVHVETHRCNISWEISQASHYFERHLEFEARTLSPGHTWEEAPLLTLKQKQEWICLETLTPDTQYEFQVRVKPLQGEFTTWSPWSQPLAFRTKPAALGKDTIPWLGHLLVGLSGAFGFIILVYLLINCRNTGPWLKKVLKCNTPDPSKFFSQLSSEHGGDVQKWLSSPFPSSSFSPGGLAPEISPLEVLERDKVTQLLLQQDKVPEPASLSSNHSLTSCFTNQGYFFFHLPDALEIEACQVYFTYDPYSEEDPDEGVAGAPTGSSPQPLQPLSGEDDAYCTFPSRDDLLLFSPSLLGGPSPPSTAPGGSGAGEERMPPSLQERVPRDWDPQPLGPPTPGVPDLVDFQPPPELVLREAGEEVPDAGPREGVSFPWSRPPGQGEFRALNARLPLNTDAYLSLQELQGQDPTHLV
Chain of IL-2R βγ heterodimer on cells (NK92 cells; human NK cells and CD8+ T cells) (human) (P31785 23-369, chain 2 of 2, further chain): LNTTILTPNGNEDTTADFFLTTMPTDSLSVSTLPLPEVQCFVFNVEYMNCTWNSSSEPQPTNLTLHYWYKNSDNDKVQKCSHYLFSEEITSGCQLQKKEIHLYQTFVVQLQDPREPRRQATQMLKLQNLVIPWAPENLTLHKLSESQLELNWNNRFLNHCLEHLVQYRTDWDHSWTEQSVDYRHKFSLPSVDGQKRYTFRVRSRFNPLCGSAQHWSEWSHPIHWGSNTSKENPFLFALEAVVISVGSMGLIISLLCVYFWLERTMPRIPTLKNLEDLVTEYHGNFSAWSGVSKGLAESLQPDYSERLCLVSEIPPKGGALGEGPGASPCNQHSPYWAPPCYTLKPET

Chain of Carcinoembryonic Antigen (CEA) (human) (P06731 35-685 limits assumed): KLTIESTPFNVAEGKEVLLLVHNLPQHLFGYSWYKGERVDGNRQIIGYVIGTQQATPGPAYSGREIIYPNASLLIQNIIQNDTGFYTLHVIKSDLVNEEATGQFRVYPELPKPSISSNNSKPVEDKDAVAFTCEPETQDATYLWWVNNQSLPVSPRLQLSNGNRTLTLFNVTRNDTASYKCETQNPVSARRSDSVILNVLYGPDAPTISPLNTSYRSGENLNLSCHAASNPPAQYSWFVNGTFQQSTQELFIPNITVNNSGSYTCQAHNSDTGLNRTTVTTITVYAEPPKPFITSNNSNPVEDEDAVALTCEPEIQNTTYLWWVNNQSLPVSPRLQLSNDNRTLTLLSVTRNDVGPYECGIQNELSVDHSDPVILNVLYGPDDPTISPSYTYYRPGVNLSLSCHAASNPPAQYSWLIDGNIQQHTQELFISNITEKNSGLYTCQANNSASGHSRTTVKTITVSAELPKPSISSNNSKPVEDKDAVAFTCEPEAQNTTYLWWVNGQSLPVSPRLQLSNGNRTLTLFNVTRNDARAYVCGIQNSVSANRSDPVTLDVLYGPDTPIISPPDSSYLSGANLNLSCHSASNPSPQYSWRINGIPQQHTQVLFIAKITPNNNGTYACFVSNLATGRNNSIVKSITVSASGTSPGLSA
Chain of human IL-2R βγ heterodimer (IL-2R β subunit-Fc(hole) / IL-2R γ subunit-Fc(knob) fusion) (human) (beta, as listed by the source limits assumed, form in doubt, chain 1 of 2): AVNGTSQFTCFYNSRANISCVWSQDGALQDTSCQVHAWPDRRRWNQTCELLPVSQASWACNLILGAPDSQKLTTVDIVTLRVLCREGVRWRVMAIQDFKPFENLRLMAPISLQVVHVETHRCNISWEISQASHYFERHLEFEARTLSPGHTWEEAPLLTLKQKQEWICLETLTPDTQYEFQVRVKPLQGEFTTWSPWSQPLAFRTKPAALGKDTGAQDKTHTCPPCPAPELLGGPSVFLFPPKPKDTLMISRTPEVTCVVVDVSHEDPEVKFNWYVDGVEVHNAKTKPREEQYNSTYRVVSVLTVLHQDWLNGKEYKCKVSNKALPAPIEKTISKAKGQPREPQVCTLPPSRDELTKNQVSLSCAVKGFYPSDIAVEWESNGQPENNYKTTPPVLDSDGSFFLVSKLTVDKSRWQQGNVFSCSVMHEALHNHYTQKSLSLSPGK
Chain of human IL-2R βγ heterodimer (IL-2R β subunit-Fc(hole) / IL-2R γ subunit-Fc(knob) fusion) (human) (gamma, as listed by the source limits assumed, form in doubt, chain 2 of 2): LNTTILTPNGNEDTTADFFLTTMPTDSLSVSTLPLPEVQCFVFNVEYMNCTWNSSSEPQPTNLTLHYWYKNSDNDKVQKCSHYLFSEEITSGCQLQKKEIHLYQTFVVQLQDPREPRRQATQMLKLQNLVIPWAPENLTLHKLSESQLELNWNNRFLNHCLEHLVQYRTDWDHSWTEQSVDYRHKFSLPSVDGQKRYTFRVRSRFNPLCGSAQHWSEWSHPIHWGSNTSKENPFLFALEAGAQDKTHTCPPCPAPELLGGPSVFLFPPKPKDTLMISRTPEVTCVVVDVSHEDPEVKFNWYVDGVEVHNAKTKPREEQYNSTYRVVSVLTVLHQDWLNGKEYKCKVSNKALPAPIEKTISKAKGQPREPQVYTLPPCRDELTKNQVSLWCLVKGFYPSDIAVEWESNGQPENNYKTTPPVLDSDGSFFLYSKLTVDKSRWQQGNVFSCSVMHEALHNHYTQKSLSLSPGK

The substance “CEA-targeted CH1A1A 98/99 2F1-based IgG-IL-2 qm immunoconjugate” had a Kd in experiment [1] of 0.4 nM.
In the case of “CEA-targeted CH1A1A 98/99 2F1-based IgG-IL-2 wt immunoconjugate”, the Kd in experiment [2] amounted to 0.47 nM.
The substance “FAP-targeted 4G8-based IgG-IL-2 quadruple mutant (qm) immunoconjugate” showed a concentration for a half-maximal effect (EC50) in experiment [3] of 0.9 nM. Further, the Kd was 0.1 nM in experiment [4] and 5.9 nM in experiment [5]. The substance also registered a fold decrease in STAT5 phosphorylation in NK cells and CD8+ T cells (FACS); potency relative to Proleukin in experiment [6] of less than 10 fold.
